The values that follow are results of earlier work, collected in article PMC5811428.

This series deals with C5aR (Homo sapiens) (UniProt P21730).
UniProt P21730, sequence (P21730 whole entry): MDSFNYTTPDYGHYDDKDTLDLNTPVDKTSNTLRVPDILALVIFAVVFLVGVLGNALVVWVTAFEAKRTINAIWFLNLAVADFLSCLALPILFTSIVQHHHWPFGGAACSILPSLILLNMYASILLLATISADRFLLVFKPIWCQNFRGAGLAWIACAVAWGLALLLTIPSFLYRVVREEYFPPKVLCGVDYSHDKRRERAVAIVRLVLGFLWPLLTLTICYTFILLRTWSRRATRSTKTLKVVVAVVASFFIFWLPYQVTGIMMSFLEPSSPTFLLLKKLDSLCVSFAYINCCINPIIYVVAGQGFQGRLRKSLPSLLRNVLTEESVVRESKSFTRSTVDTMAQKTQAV

For “hC5a C-terminal peptide CT peptide (from UniProt P01031)”, the Kd was 150 µM.
